Data as given in patent publication US20240400677A1.

How the values were obtained:
[1] = target: human SIRPγ on primary human T-cells (human) (UniProt Q9P1W8); assay: flow cytometry, naive resting human CD3+ T cells
[2] = target: human SIRPγ on primary human T-cells (human) (UniProt Q9P1W8); assay: flow cytometry, anti-CD3/CD28-stimulated human CD8+ T cells
[3] = target: human SIRPγ on primary human T-cells (human) (UniProt Q9P1W8); assay: flow cytometry, naive resting human CD4+ T cells
[4] = target: human SIRPγ on primary human T-cells (human) (UniProt Q9P1W8); assay: flow cytometry, naive resting human CD8+ T cells
[5] = target: human SIRPγ on primary human T-cells (human) (UniProt Q9P1W8); assay: flow cytometry, anti-CD3/CD28-stimulated human CD4+ T cells
[6] = target: human SIRPγ on primary human T-cells (human) (UniProt Q9P1W8); assay: flow cytometry, anti-CD3/CD28-stimulated human CD3+ T cells

Chain of human SIRPγ on primary human T-cells (human) (Q9P1W8 29-387 limits assumed): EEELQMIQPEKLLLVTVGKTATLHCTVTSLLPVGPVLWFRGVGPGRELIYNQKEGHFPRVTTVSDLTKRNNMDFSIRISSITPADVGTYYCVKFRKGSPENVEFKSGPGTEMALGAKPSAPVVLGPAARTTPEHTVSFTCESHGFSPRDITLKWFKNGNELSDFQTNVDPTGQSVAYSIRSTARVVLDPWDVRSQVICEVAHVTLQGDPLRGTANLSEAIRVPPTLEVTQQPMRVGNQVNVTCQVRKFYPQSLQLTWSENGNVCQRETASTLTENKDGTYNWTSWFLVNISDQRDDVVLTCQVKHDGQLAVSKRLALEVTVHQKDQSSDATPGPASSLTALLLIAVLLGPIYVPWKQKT

EC50 (read off the curve) [1]: 0.2 µg/mL
EC50 (read off the curve) [2]: 0.1 µg/mL
EC50 (read off the curve) [3]: 0.04 µg/mL
EC50 (read off the curve) [4]: 0.09 µg/mL
EC50 (read off the curve) [5]: 0.05 µg/mL
EC50 (read off the curve) [6]: 0.4 µg/mL
Substance: mouse monoclonal antibody against human SIRPγ, clone OX-119 (ThermoFisher Scientific MA5-28215)
